Experimental data as given in article PMC6555819, “Comprehensive study of nuclear receptor DNA binding provides a revised framework for understanding receptor specificity”.

B1: NRC3_wobSeed85_DR3_C13A_o1 (dsDNA)
DNA 1: GCCGTCCAAGGTAAGAGAGGTCAGTGAATGCCGAGTGCGATTGACAGCGTAGAATGAAGG
DNA 2: CCTTCATTCTACGCTGTCAATCGCACTCGGCATTCACTGACCTCTCTTACCTTGGACGGC
B2: NRC3_wobSeed84_DR3_T8G_o1 (dsDNA)
DNA 1: GCCCGACGGGGGCAGAAAGGTTACCATACCATCCGGGCGATTGACAGCGTAGAATGAAGG
DNA 2: CCTTCATTCTACGCTGTCAATCGCCCGGATGGTATGGTAACCTTTCTGCCCCCGTCGGGC
B3: NRC3_random_hg19_9_o1 (dsDNA)
DNA 1: GCAGGACTCCTCGTGAAGAGCAGGTGGGAGCGAGTCGCGATTGACAGCGTAGAATGAAGG
DNA 2: CCTTCATTCTACGCTGTCAATCGCGACTCGCTCCCACCTGCTCTTCACGAGGAGTCCTGC
B4: NRC3_wobSeed137_DR5_C18G_o1 (dsDNA)
DNA 1: GCATATGTAGGTTACATGCGGGTCATTCAGGCTATGGCGATTGACAGCGTAGAATGAAGG
DNA 2: CCTTCATTCTACGCTGTCAATCGCCATAGCCTGAATGACCCGCATGTAACCTACATATGC
B5: NRC3_random_hg19_401_o1 (dsDNA)
DNA 1: GCTCTCCATCTTGAGTACCAGCCCTGTTCTTCCAGTGCGATTGACAGCGTAGAATGAAGG
DNA 2: CCTTCATTCTACGCTGTCAATCGCACTGGAAGAACAGGGCTGGTACTCAAGATGGAGAGC
B6: NRC3_wobSeed89_DR3_G19A_o1 (dsDNA)
DNA 1: GCCTATGTAGGTTAAGGGAGTCATTCAGTTTGAAAGGCGATTGACAGCGTAGAATGAAGG
DNA 2: CCTTCATTCTACGCTGTCAATCGCCTTTCAAACTGAATGACTCCCTTAACCTACATAGGC
B7: NRC3_random_hg19_340_o1 (dsDNA)
DNA 1: GCGCCTTGTCCTTCTGCAGCTGCTGGTGCAGCCCAGGCGATTGACAGCGTAGAATGAAGG
DNA 2: CCTTCATTCTACGCTGTCAATCGCCTGGGCTGCACCAGCAGCTGCAGAAGGACAAGGCGC
B8: NRC3_wobSeed141_DR5_C6G_o1 (dsDNA)
DNA 1: GCAGTGAAAGTTCAGGACGAGGTAACGTAAAGCACGGCGATTGACAGCGTAGAATGAAGG
DNA 2: CCTTCATTCTACGCTGTCAATCGCCGTGCTTTACGTTACCTCGTCCTGAACTTTCACTGC
B9: NRC3_random_hg19_147_o1 (dsDNA)
DNA 1: GCCTCTTGCTCCCTATTGGTCTATTGCACTGCAGAGGCGATTGACAGCGTAGAATGAAGG
DNA 2: CCTTCATTCTACGCTGTCAATCGCCTCTGCAGTGCAATAGACCAATAGGGAGCAAGAGGC
B10: NRC3_random_hg19_208_o1 (dsDNA)
DNA 1: GCAAGAGAGAGACACAATGGCTAAAGAAGGAAGAGTGCGATTGACAGCGTAGAATGAAGG
DNA 2: CCTTCATTCTACGCTGTCAATCGCACTCTTCCTTCTTTAGCCATTGTGTCTCTCTCTTGC
B11: NRC3_random_hg19_56_o1 (dsDNA)
DNA 1: GCTGTGCCTTCTGCACAAGGTAGGTCTACATCCACTGCGATTGACAGCGTAGAATGAAGG
DNA 2: CCTTCATTCTACGCTGTCAATCGCAGTGGATGTAGACCTACCTTGTGCAGAAGGCACAGC
B12: NRC3_wobSeed18_DR0_T12G_o1 (dsDNA)
DNA 1: GCGATACAGGGGCAAGGCCAGAGTACGCGTATTGATGCGATTGACAGCGTAGAATGAAGG
DNA 2: CCTTCATTCTACGCTGTCAATCGCATCAATACGCGTACTCTGGCCTTGCCCCTGTATCGC
B13: NRC3_random_hg19_342_o1 (dsDNA)
DNA 1: GCATCGGGAGTGATGATAAGTAAGGCAAGCCCTGTTGCGATTGACAGCGTAGAATGAAGG
DNA 2: CCTTCATTCTACGCTGTCAATCGCAACAGGGCTTGCCTTACTTATCATCACTCCCGATGC
B14: NRC3_wobSeed28_DR1_A21T_o1 (dsDNA)
DNA 1: GCCCTACTGGGCCAAAGGTCTTTGATTCCAATGCTCGCGATTGACAGCGTAGAATGAAGG
DNA 2: CCTTCATTCTACGCTGTCAATCGCGAGCATTGGAATCAAAGACCTTTGGCCCAGTAGGGC
B15: NRC3_random_hg19_462_o1 (dsDNA)
DNA 1: GCCTGCTGCTTTCCTGATTACTGTAGCATCAGGTACGCGATTGACAGCGTAGAATGAAGG
DNA 2: CCTTCATTCTACGCTGTCAATCGCGTACCTGATGCTACAGTAATCAGGAAAGCAGCAGGC
B16: NRC3_random_hg19_343_o1 (dsDNA)
DNA 1: GCCCTGGAGTGTCACTTAGCCACATTCTATTGGCCAGCGATTGACAGCGTAGAATGAAGG
DNA 2: CCTTCATTCTACGCTGTCAATCGCTGGCCAATAGAATGTGGCTAAGTGACACTCCAGGGC
B17: NRC3_random_hg19_170_o1 (dsDNA)
DNA 1: GCCTTGCATTGTGGTTTGGATTTGCATTTCCCTAAAGCGATTGACAGCGTAGAATGAAGG
DNA 2: CCTTCATTCTACGCTGTCAATCGCTTTAGGGAAATGCAAATCCAAACCACAATGCAAGGC
B18: NRC3_random_hg19_246_o1 (dsDNA)
DNA 1: GCCTCCAGACTGCCTTCAGATTCAAGACGCAAAGGCGCGATTGACAGCGTAGAATGAAGG
DNA 2: CCTTCATTCTACGCTGTCAATCGCGCCTTTGCGTCTTGAATCTGAAGGCAGTCTGGAGGC
B19: NRC3_random_hg19_329_o1 (dsDNA)
DNA 1: GCAGGGATGAATAGATCGAAGTTACTGCCCATTCAAGCGATTGACAGCGTAGAATGAAGG
DNA 2: CCTTCATTCTACGCTGTCAATCGCTTGAATGGGCAGTAACTTCGATCTATTCATCCCTGC
B20: NRC3_random_hg19_134_o1 (dsDNA)
DNA 1: GCAGCTCCACTTCATGCCAGGCCTGGGCTAGAGGCTGCGATTGACAGCGTAGAATGAAGG
DNA 2: CCTTCATTCTACGCTGTCAATCGCAGCCTCTAGCCCAGGCCTGGCATGAAGTGGAGCTGC
B21: NRC3_wobSeed93_DR3_A14T_o1 (dsDNA)
DNA 1: GCAGTCAAAGTTCTTCTAGGTAACGTAAGATATGCTGCGATTGACAGCGTAGAATGAAGG
DNA 2: CCTTCATTCTACGCTGTCAATCGCAGCATATCTTACGTTACCTAGAAGAACTTTGACTGC
B22: NRC3_random_hg19_42_o1 (dsDNA)
DNA 1: GCTTTGTGTGGGCTGTCATTGGATGCTCTGGTCATGGCGATTGACAGCGTAGAATGAAGG
DNA 2: CCTTCATTCTACGCTGTCAATCGCCATGACCAGAGCATCCAATGACAGCCCACACAAAGC
B23: NRC3_wobSeed113_DR4_G20C_o1 (dsDNA)
DNA 1: GCATATGTAGGTTAGCTGGCGTCATTCAGACTAGGCGCGATTGACAGCGTAGAATGAAGG
DNA 2: CCTTCATTCTACGCTGTCAATCGCGCCTAGTCTGAATGACGCCAGCTAACCTACATATGC
B24: NRC3_random_hg19_32_o1 (dsDNA)
DNA 1: GCTGTGTCAGACAGGCAAAGCACTTAAGATTTGTGAGCGATTGACAGCGTAGAATGAAGG
DNA 2: CCTTCATTCTACGCTGTCAATCGCTCACAAATCTTAAGTGCTTTGCCTGTCTGACACAGC
B25: NRC3_random_hg19_338_o1 (dsDNA)
DNA 1: GCACACAGAGAAACTCTTGCCAGTAGCAGTAGTACCGCGATTGACAGCGTAGAATGAAGG
DNA 2: CCTTCATTCTACGCTGTCAATCGCGGTACTACTGCTACTGGCAAGAGTTTCTCTGTGTGC
B26: NRC3_random_hg19_463_o1 (dsDNA)
DNA 1: GCCAGGGAGAGAGCCTTGCAAAGATGGAACAATCAGGCGATTGACAGCGTAGAATGAAGG
DNA 2: CCTTCATTCTACGCTGTCAATCGCCTGATTGTTCCATCTTTGCAAGGCTCTCTCCCTGGC
B27: NRC3_random_hg19_157_o1 (dsDNA)
DNA 1: GCCCAAGATCTTGCCACTGCACTCCAGCCTGGATGAGCGATTGACAGCGTAGAATGAAGG
DNA 2: CCTTCATTCTACGCTGTCAATCGCTCATCCAGGCTGGAGTGCAGTGGCAAGATCTTGGGC
B28: NRC3_random_hg19_215_o1 (dsDNA)
DNA 1: GCTGTGGTCCCAAACACCTCAAGCATGACAATGCGTGCGATTGACAGCGTAGAATGAAGG
DNA 2: CCTTCATTCTACGCTGTCAATCGCACGCATTGTCATGCTTGAGGTGTTTGGGACCACAGC

What follows are binders tested against RARb:RXRa (Homo sapiens, UniProt P10826;P19793 full;full) (assay: no ligand; PBM; 270 nM : 90 nM RXRa; PBS pH 7.4, 2% milk, 0.02% Triton X-100, 1 mM DTT, BSA, 0.4 mg/ml salmon testes DNA). Conditions: tags: His kept;His cleaved; copies: 1;1; label: surface-attached array probe.
In short: (§1)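 Regression normalization was applied to scanned fluorescence from custom Agilent 4×180K protein-binding microarrays. Before scanning, arrays were incubated 1 h with ligand-free nuclear receptor dimers, and binding was detected with antibodies against each partner (one per run). Binding z-scores use the random background probes as reference.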

Chain of RARb:RXRa (P10826 whole entry, chain 1 of 2): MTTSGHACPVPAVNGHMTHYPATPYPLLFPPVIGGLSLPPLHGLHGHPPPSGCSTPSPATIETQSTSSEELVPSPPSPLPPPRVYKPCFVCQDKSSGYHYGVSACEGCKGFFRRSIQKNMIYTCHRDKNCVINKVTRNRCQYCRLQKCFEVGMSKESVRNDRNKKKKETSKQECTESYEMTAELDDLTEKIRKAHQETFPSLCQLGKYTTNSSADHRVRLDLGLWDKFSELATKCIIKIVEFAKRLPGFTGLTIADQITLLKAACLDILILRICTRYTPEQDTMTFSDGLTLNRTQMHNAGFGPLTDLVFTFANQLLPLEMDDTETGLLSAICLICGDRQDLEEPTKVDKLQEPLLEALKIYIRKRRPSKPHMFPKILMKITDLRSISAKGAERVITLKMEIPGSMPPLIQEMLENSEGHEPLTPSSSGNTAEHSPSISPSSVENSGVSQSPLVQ
Chain of RARb:RXRa (P19793 whole entry, chain 2 of 2): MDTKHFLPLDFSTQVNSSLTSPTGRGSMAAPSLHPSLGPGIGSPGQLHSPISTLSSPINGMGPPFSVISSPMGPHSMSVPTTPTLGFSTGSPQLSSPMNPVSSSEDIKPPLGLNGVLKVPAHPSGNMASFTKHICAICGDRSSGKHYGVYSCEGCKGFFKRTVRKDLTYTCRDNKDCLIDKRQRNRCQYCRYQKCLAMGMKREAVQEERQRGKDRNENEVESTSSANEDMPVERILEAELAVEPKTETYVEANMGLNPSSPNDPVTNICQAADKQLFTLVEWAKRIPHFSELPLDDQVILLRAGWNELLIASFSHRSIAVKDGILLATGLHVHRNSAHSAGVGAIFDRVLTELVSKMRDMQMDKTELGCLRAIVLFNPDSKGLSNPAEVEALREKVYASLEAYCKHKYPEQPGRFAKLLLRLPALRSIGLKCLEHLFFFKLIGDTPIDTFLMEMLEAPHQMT

Binder	binding signal
B1	3.07 PBM z-score against 500 random probes
B2	3.11 PBM z-score against 500 random probes

The binders below were run against RARg:RXRa (Homo sapiens, UniProt P13631;P19793 full;full) in the same assay as above. Conditions: tags: His kept;His cleaved; copies: 1;1; label: surface-attached array probe.
In short: as §1

Chain of RARg:RXRa (P13631 whole entry, chain 1 of 2): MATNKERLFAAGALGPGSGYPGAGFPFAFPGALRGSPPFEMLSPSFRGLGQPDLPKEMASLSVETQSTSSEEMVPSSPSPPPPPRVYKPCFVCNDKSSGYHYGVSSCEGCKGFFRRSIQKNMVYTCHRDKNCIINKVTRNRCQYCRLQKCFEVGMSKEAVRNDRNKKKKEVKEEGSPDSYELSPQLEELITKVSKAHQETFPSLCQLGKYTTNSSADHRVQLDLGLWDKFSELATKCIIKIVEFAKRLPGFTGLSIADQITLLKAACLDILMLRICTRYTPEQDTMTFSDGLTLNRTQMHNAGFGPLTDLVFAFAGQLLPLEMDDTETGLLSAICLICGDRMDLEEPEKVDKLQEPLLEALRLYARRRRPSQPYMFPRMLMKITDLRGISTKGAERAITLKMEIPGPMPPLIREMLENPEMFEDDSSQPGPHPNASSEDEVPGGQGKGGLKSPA
Chain of RARg:RXRa (P19793 whole entry, chain 2 of 2): as the sequence (P19793 whole entry, chain 2 of 2) above

Binder	binding signal
B3	-0.88 PBM z-score against 500 random probes
B4	3.89 PBM z-score against 500 random probes
B5	-0.32 PBM z-score against 500 random probes
B6	0.49 PBM z-score against 500 random probes
B7	-0.68 PBM z-score against 500 random probes

What follows are binders tested against PPARa:RXRa (Homo sapiens, UniProt Q07869;P19793 full;full) in the same assay as above. Conditions: tags: GST kept;His cleaved; copies: 1;1; label: surface-attached array probe.
In short: as §1

Chain of PPARa:RXRa (Q07869 whole entry, chain 1 of 2): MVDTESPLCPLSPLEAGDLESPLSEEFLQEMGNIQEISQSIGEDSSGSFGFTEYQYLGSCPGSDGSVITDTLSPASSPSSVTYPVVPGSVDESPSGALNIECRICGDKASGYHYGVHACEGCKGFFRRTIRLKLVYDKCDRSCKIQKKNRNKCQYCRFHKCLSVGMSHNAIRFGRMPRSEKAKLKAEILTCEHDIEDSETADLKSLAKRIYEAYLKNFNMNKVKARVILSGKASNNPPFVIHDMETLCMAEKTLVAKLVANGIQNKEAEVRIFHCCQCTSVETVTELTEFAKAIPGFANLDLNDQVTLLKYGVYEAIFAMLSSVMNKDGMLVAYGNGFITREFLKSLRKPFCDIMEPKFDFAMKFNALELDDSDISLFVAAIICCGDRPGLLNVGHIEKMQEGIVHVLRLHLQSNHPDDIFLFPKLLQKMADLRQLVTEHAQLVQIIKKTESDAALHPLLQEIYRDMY
Chain of PPARa:RXRa (P19793 whole entry, chain 2 of 2): as the sequence (P19793 whole entry, chain 2 of 2) above

Binder	binding signal
B8	3.27 PBM z-score against 500 random probes
B9	0.48 PBM z-score against 500 random probes

Each binder was assayed against PXR:RXRa (Homo sapiens, UniProt O75469;P19793 full;full) in the same assay as above. Conditions: tags: His kept;His cleaved; copies: 1;1; label: surface-attached array probe.
In short: as §1

Chain of PXR:RXRa (O75469 whole entry, chain 1 of 2): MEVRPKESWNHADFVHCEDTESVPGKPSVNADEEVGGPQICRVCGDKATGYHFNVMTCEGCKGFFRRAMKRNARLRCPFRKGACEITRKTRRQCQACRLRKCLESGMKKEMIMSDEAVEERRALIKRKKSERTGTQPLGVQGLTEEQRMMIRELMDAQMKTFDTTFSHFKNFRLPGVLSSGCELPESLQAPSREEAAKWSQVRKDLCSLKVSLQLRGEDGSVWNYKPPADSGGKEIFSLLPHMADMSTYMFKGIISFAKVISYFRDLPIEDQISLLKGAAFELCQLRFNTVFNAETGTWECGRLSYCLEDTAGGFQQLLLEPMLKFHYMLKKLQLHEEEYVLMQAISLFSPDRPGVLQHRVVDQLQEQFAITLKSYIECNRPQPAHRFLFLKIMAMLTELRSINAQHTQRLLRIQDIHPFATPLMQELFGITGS
Chain of PXR:RXRa (P19793 whole entry, chain 2 of 2): as the sequence (P19793 whole entry, chain 2 of 2) above

Binder	binding signal
B10	0.26 PBM z-score against 500 random probes
B11	-0.54 PBM z-score against 500 random probes
B12	-0.01 PBM z-score against 500 random probes
B13	-0.7 PBM z-score against 500 random probes
B14	-0.05 PBM z-score against 500 random probes
B3	-0.76 PBM z-score against 500 random probes
B4	3.01 PBM z-score against 500 random probes
B15	-0.18 PBM z-score against 500 random probes
B16	0.14 PBM z-score against 500 random probes
B1	3.25 PBM z-score against 500 random probes
B8	3 PBM z-score against 500 random probes
B17	0.34 PBM z-score against 500 random probes
B18	-0.41 PBM z-score against 500 random probes
B19	0.08 PBM z-score against 500 random probes
B2	3.49 PBM z-score against 500 random probes
B20	-0.78 PBM z-score against 500 random probes
B5	0.41 PBM z-score against 500 random probes
B6	0.45 PBM z-score against 500 random probes
B21	0.13 PBM z-score against 500 random probes
B7	-0.91 PBM z-score against 500 random probes
B22	0.44 PBM z-score against 500 random probes
B23	-0.13 PBM z-score against 500 random probes
B24	-0.5 PBM z-score against 500 random probes
B25	-0.32 PBM z-score against 500 random probes
B26	-0.42 PBM z-score against 500 random probes
B9	0.25 PBM z-score against 500 random probes
B27	-0.24 PBM z-score against 500 random probes
B28	-0.46 PBM z-score against 500 random probes

What follows are binders tested against FXR:RXRa (Homo sapiens, UniProt Q96RI1;P19793 full;full) in the same assay as above. Conditions: tags: His kept;His cleaved; copies: 1;1; label: surface-attached array probe.
In short: as §1

Chain of FXR:RXRa (Q96RI1 whole entry, chain 1 of 2): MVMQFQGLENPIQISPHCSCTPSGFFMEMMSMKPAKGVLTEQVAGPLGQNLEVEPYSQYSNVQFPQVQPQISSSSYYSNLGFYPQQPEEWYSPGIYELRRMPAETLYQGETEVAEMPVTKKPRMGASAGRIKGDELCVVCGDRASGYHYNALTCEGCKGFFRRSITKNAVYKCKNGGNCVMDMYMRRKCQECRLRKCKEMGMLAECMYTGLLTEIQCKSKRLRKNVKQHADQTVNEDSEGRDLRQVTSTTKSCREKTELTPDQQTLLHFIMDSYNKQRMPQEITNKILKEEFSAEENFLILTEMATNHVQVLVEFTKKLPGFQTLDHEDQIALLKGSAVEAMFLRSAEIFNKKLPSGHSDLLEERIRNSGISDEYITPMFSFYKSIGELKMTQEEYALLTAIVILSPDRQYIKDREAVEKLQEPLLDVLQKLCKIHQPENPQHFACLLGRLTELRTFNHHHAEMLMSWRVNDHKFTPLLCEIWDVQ
Chain of FXR:RXRa (P19793 whole entry, chain 2 of 2): as the sequence (P19793 whole entry, chain 2 of 2) above

Binder	binding signal
B20	-0.54 PBM z-score against 500 random probes
B6	0.48 PBM z-score against 500 random probes
